Test [1] deals with mu (MOP) (h) (human) (UniProt P35372). The test is described as follows: radioligand displacement, reference compound of the assay (Ki Ref).
Test [2] concerns the target delta (DOP) (h) (human) (UniProt P41143). Described as above.

In test [1], DAMGO (peptide) showed a Ki of 0.37 nM.
DPDPE (peptide): the Ki in test [2] is 1.2 nM.

By Ki is commonly meant a dissociation constant, usually derived from enzyme kinetics or from competition with a known ligand. A higher Ki goes with lower affinity.

The record behind these values is patent US12427210B2, “Compounds comprising a fibroblast activation protein ligand and use thereof” (priority 2019, dated 2025).
